The source of these data is patent publication US20240401063, “Aptamer for DKK1 and Use Thereof” (APTACURE THERAPEUTICS LIMITED, published 2024).

By IC50 is commonly meant the concentration that gives 50% inhibition. For orientation: Kd means the equilibrium constant for the complex coming apart.

Data set [1] has as its target T1, DKK1 (Dickkopf-1), full-length (Homo sapiens, UniProt O94907 SEQ:32-266).
T1 sequence: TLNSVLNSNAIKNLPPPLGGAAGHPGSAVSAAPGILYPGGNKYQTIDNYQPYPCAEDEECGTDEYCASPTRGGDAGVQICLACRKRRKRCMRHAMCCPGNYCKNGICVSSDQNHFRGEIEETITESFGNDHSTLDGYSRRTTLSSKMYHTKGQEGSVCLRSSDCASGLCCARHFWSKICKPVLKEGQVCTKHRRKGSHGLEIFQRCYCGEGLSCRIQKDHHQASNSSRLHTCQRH
Briefly: ELONA; 1 nM: no or slight difference from aptdkk5. To be noted: tags: His6; label: biotin. As to the method:
(§1) Enzyme linked oligonucleotide assay (ELONA): 160 ng DKK1 per well and negative target were coated in a 96-well microtiter plate by incubating at 4° C. overnight through hydrophobic interaction. Non-binding sites in wells were blocked with bull serum albumin (BSA) at room temperature for 1 hour, and then washed with DNA-binding buffer 4 times for 5 minutes each. The biotinylated aptamer candidates/RS with an appropriate concentration were added to each well and incubated at room temperature for 45 minutes with continuous gentle shaking. After binding, the plate was washed with washing buffer 4 times for 5 minutes each to remove non-specific and weakly binding sequences. 100 μl streptavidin-horseradish peroxidase (HRP) (1:10000 dilute into PBST+0.1% BSA) was added to each well, and incubated for 30 minutes, and washed for 4 times with the binding buffer. 50 μl 3,3′,5,5′-tetramethylbenzidine (TMB) as a HRP substrate was added to each well and incubated for 20 minutes. 50 μl 2M H₂SO₄ was added to terminate the reaction. The absorbance at 450 nm was measured with a microplate reader (Molecular Device i3x). Data was analyzed with Origin software. A binding curve was generated and KD was calculated with a non-linear curve fitting model logistic.
The specificity of 100 nM/i nM of each aptamer/RS against DKK-1 was determined for 24 truncated sequences of aptdkk5 and original aptdkk5 (Table 6) by ELONA and the absorbance at 450 nm was detected. When the concentration was 100 nM, there was no significant difference or slight difference in the absorbance between apt5-1-38, apt5-1-35, apt5-1-62, or apt5-1-59 and the original aptdkk5 (FIG. 8a). When the concentration was 1 nM, there was no significant difference or slight difference in the absorbance between apt5-1-50, apt5-1-47, apt5-1-44, apt5-1-41, apt5-1-38, apt5-1-35, apt5-1-65, apt5-1-62, apt5-1-59, or apt5-1-53 and the original aptdkk5 (FIG. 8b). After the specificity and length of these aptamers were considered, apt5-1-44, apt5-1-41, apt5-1-38, and apt5-1-35 were selected to determine the binding affinity against DKK1.

Data set [2] concerns the target T2, DKK1 expressed in Wnt reporter cells (UniProt O94907 SEQ:32-266).
T2 sequence: T1 sequence
Nature of the data set: cell_activity; TOPFlash Wnt3a luciferase in HEK293T. The conditions noted are these: tags: DKK1 construct co-transfected in HEK293T. As to the method:
TCF-wnt induced luciferase activity assay: HEK293T cells were co-transfected with corresponding plasmids, including TOPFlash, FOPFlash, Wnt3a, and DKK1 constructs. An equal amount of the carrier was used for each time of transfection. The culture medium was replaced 24 hours after the transfection. The cells were treated with conditional culture medium containing 1 μM corresponding aptamer candidates. In order to determine inhibition effect, the cells are treated with aptamer candidates having gradient concentrations. 24 hours after treatment, the cells were lysed with 100 μl of lysis buffer, and 20 μl was taken for analysis. It was calculated according to the protocol (dual luciferase reporter gene assay, Promega).

Data set [3] concerns the target T1, DKK1 (Dickkopf-1), full-length. Nature of the data set: ELONA; room temperature. The conditions noted are these: tags: His6; label: biotin; G-rich, predicted G4. As to the method:
as §1
Aptamer candidates with significant specificity and Candidate 3 as a negative control were used to determine the binding affinity against DKK1. Candidates 1, 2, 4, and 14 had concentrations of (0, 62.5 nM, 125 nM, 250 nM, 500 nM, 1000 nM, 2000 nM, and 4000 nM), Candidates 7, 10, 15, and 16 had concentrations of (0, 23.44 nM, 46.86 nM, 93.75 nM, 187.5 nM, 375 nM, 750 nM, and 1500 nM), and other candidates had concentrations of (0, 0.18 nM, 0.74 nM, 2.96 nM, 11.84 nM, 47.35 nM, 189.39 nM, and 757.58 nM). […] Six candidates (aptdkk-5, 13, 20, 19, 6, and 1) were rich in G. The other five sequences (aptdkk-9, 18, 12, 17, and 8) were not rich in G.

Data set [4] shares this target. Briefly: ELONA; high affinity; Kd only in FIG. 9. The conditions noted are these: tags: His6; label: biotin. The method, then: as §1
Aptamer candidates with significant specificity (apt5-1-44, apt5-1-41, apt5-1-38, and apt5-1-35) and the original aptdkk5 as a positive control were used to determine the binding affinity against DKK1. The original aptdkk5 and apt5-1-44 had concentrations of (0.15625 nM, 0.625 nM, 1.25 nM, 2.5 nM, 5 nM, 10 nM, 50 nM, and 100 nM), apt5-1-41, apt5-1-38, and apt5-1-35 had concentrations of (0, 1.5625 nM, 3.125 nM, 6.25 nM, 12.5 nM, 25 nM, and 50 nM).

The target is the same in data set [5]. Briefly: ELONA; not significantly above blank at 1 uM; used as negative control. The conditions noted are these: tags: His6; label: biotin. The method, then:
as §1, with “50 μl 2M H₂SO₄ was added to terminate the reaction.” left out
The specificity of 1 μM of each adapter/RS against DKK-1 was determined for 20 potential sequences with the highest occurrence rate (Table 4) by ELONA and the absorbance at 450 nm was detected.

Data set [6] has the same target. Briefly: ELONA; highest affinity of the four truncations; Kd only in FIG. 9. The conditions noted are these: tags: His6; label: biotin. As to the method:
as §1, with “logistic. […]” for “logistic.”

Data set [7] has the same target. Briefly: ELONA; 100 nM and 1 nM: no or slight difference from aptdkk5. To be noted: tags: His6; label: biotin. The method, then:
as §1, with “100 μl streptavidin-horseradish peroxidase (HRP) (1:10000 dilute into PBST+0.1% BSA) was added to each well, and incubated for 30 minutes, and washed for 4 times with the binding buffer. 50 μl 3,3′,5,5′-tetramethylbenzidine (TMB) as a HRP substrate was added to each well and incubated for 20 minutes. 50 μl 2M H₂SO₄ was added to terminate the reaction.” left out
The specificity of 100 nM/i nM of each aptamer/RS against DKK-1 was determined for 24 truncated sequences of aptdkk5 and original aptdkk5 (Table 6) by ELONA and the absorbance at 450 nm was detected. When the concentration was 100 nM, there was no significant difference or slight difference in the absorbance between apt5-1-38, apt5-1-35, apt5-1-62, or apt5-1-59 and the original aptdkk5 (FIG. 8a). […]

Where [8] appears, read: label: biotin, G-rich, predicted G4.

With CGTACGGTCGACGCTAGCTGGTGGTTGGGGTGGGTGGTGGTTGTTCG (ssDNA) [Apt5-1-47], in data set [1], the binding result was “binds”.

B1: Apt5-1-65 (ssDNA)
DNA: CGTACGGTCGACGCTAGCTGGTGGTTGGGGTGGGTGGTGGTTGTTCGTGGCCGCGTACGGTCGAC
For B1, the binding result in data set [1] is “binds”.

B2: Aptdkk-5 (ssDNA)
DNA: CGTACGGTCGACGCTAGCTGGTGGTTGGGGTGGGTGGTGGTTGTTCGTGGCCGGGATCCGAGCTCCACGTG
With B2, the IC50 in data set [2] (setting [8]) was 754 nM. Also, in data set [3], the Kd is 0.3 nM. Take CGTACGGTCGACGCTAGCTGGTGGTTGGGGTGGGTGGTGGTTGTTCGTGG (ssDNA) [Apt5-1-50]: the binding result in data set [1] is “binds”.

B3: Apt5-1-53 (ssDNA)
DNA: CGTACGGTCGACGCTAGCTGGTGGTTGGGGTGGGTGGTGGTTGTTCGTGGCCG
In the case of B3, in data set [1], the binding result was “binds”.

On to CGTACGGTCGACGCTAGCTGGTGGTTGGGGTGGGTGGTGGT (ssDNA) [Apt5-1-41], for which the binding result in data set [4] is recorded as “binds”.

B4: Aptdkk-3 (ssDNA)
DNA: CGTACGGTCGACGCTAGCTAACTGTCCGACGCGTCTTTCACTTTCTCCCGCCGGGATCCGAGCTCCACGTG
Take B4: in data set [5], the binding result is “no binding”. For the molecule CGTACGGTCGACGCTAGCTGGTGGTTGGGGTGGGTGGT (ssDNA) [Apt5-1-38 (Aptdkk5s)], the binding result in data set [6] is reported as “binds”. CGTACGGTCGACGCTAGCTGGTGGTTGGGGTGGGTGGT (ssDNA, O-methyl (positions not stated); 3' inverted dT) [dkk5s-OM-indT] returned a half-inhibitory concentration (IC50) in data set [2] of 383 nM.

B5: Apt5-1-62 (ssDNA)
DNA: CGTACGGTCGACGCTAGCTGGTGGTTGGGGTGGGTGGTGGTTGTTCGTGGCCGCGTACGGTC
As to B5, in data set [7], the binding result is reported as “binds”.

B6: Aptdkk-20 (ssDNA)
DNA: CGTACGGTCGACGCTAGCCGTAGGGAGGTGGGTGGGTATTTCTCTCTGTCGTGGGATCCGAGCTCCACGTG
With B6, the IC50 in data set [2] (setting [8]) is 1500 nM. Moreover, the Kd in data set [3] is 6.6 nM. CGTACGGTCGACGCTAGCTGGTGGTTGGGGTGGGT (ssDNA) [Apt5-1-35]: in data set [4], the binding result was “binds”.

B7: Apt5-1-59 (ssDNA)
DNA: CGTACGGTCGACGCTAGCTGGTGGTTGGGGTGGGTGGTGGTTGTTCGTGGCCGCGTACG
Regarding B7, the binding result in data set [7] is recorded as “binds”.

On to CGTACGGTCGACGCTAGCTGGTGGTTGGGGTGGGTGGTGGTTGT (ssDNA) [Apt5-1-44], for which the binding result in data set [4] is “binds”.
